Experimental data as given in patent US20180134804A1.
“And” between values parts separate entries of the source, which are not always exact repeats. Equal values may be shown once.

Columns and labels:
[1] = molecular target: HLA-A0201 on T2 cells without added peptide (human); experiment: flow cytometry: BB7 staining of T2 cells without peptide
[2] = molecular target: Ras10-G12V peptide/HLA-A0201 complex on peptide-pulsed T2 cells (human)
[3] = molecular target: Ras10-WT peptide/HLA-A0201 complex on peptide-pulsed T2 cells (human)
[4] = molecular target: CD3 on purified human T cells (human) (UniProt P07766); experiment: flow cytometry of purified human CD3 T cells, BiTE at 0.1 ug/ml then FITC secondary; secondary alone (GA6His_F 1;100) 8.13, unstained 8.13
Sequence of CD3 on purified human T cells (human) (P07766 23-207): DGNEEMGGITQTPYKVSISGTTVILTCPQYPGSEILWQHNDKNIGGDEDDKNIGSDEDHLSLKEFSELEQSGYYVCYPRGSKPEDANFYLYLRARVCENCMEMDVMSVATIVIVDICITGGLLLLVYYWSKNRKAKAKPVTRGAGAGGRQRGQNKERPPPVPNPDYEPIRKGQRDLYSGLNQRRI

[5] = molecular target: CD3 on purified human T cells (human) (UniProt P07766); experiment: flow cytometry of purified human CD3 T cells, BiTE at 1 ug/ml then FITC secondary; secondary alone (GA6His_F 1;100) 8.13, unstained 8.13
[6] = molecular target: CD3 on purified human T cells (human) (UniProt P07766); experiment: flow cytometry of purified human CD3 T cells, BiTE at 1 ug/ml then FITC secondary; same sample file as in FIGURE 5B
[7] = molecular target: CD3 on purified human T cells (human) (UniProt P07766); experiment: flow cytometry of purified human CD3 T cells, BiTE at 10 ug/ml then FITC secondary; secondary alone (GA6His_F 1;100) 8.13, unstained 8.13
[8] = molecular target: CD3 on purified human T cells (human) (UniProt P07766); experiment: flow cytometry of purified human CD3 T cells, BiTE at 10 ug/ml then FITC secondary; same sample file as in FIGURE 5B
[9] = molecular target: CD3 on purified human T cells (human) (UniProt P07766); experiment: flow cytometry of purified human CD3 T cells, BiTE at 0.1 ug/ml then FITC secondary; same sample file as in FIGURE 5B

| Median:FL1-H [1] | Substance | Median:FL1-H [2] | Median:FL1-H [3] | Median:FL1-H [4] | Median:FL1-H [5] | Median:FL1-H [6] | Median:FL1-H [7] | Median:FL1-H [8] | Median:FL1-H [9] |
| --- | --- | --- | --- | --- | --- | --- | --- | --- | --- |
| 316 | BB7 (antibody) | – | – | – | – | – | – | – | – |
| – | isotype control BiTE (bispecific antibody) | 11.2 and 11.4 | 10.7 and 11.2 | 39.6 | 229 | 229 | 604 | 604 | 39.6 |
